Values quoted from earlier work as cited in publication PMC7614842.

Target: C3d C3d (Mus musculus) (UniProt P01027)
Sequence of UniProt P01027 (P01027 1002-1303): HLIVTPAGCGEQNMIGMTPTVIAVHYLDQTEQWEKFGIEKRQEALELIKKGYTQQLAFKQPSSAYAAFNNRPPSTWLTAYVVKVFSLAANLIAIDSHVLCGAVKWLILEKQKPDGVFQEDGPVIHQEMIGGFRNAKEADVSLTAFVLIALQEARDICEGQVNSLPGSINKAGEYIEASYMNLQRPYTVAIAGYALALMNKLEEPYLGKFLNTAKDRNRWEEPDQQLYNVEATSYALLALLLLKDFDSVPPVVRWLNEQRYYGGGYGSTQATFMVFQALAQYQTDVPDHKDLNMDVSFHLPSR

Substance: CR2 (from UniProt P19070)
- Kd: 140 nM
